From patent US20110189093A1, “PROSTATE SPECIFIC MEMBRANE ANTIGEN ANTIBODIES AND ANTIGEN BINDING FRAGMENTS” (PROSCAN RX PHARMA, priority 2008, published 2011)

Tests used:
[1] = tested on: 22 different tumor types; assay: Immunohistochemistry on tissue microarrays of tumor types
Procedure: (§1) Tissue and tumor specificity of mAbs: to compare the tissue and tumor specificity of monoclonal antibodies of the present invention, tissue microarrays of 30 different normal tissues (Biochain) and 22 different tumor types (Dako) including prostate cancer was used in order to characterize their recognition specificity. The immunohistochemistry was performed on antigen retrieved, formalin fixed, paraffin embedded material. Anti-PSMA mAbs J591 (ATCC HB-12126) and 7E11 (ATCC HB-10494) were used as references. Formalin fixed paraffin embedded […] sections were subjected to antigen retrieval in basic antigen retrieval solution (BD Pharmingen pH 9.5) in a microwavable pressure cooker for 10 min, cooled and equilibrated to 0.01M phosphate buffered saline (PBS) pH 7.4. Staining was carried out at room temperature in a humidified chamber. Endogenous peroxidases were inactivated with a 1% solution of H2O2 for 20 min, blocked with 5% normal goat serum (NGS) for 30 min and incubated with primary monoclonal antibodies (mAbs) diluted in PBS; 2% NGS overnight. Antibody binding to tissue sections was detected by the sequential addition of the following reagents followed by washing in PBS: goat anti-mouse IgG (H+L) (ICN) secondary antibody diluted 1:100 in PBS; 2% NGS for 1 hr, a complex of a bi-specific mAb mouse anti-peroxidase and horse radish peroxidase for 1 hr, and 3,3-diaminobenzidene tetrahydrochloride (DAB) at 0.6 mg/ml in PBS; 2% NGS; 0.01% H2O2 as chromogen. The primary antibodies were purified mAbs used at concentrations optimized in dilution experiments. […] Mouse IgG mAb was used at a concentration of 0.2 μg/ml and served as a negative control for the primary antibodies. Tissue samples included organ confined and metastatic prostate cancer, HGPIN and normal prostate tissues drawn from radical prostatectomies, transurethral resections and autopsy material.

[2] = tested on: 30 different normal tissues; assay: Immunohistochemistry on tissue microarrays of normal tissues
Procedure: as §1

B1: PSf42.4: anti-PSMA monoclonal antibody; light chain variable SEQ ID NO:51, heavy chain variable SEQ ID NO:52 (antibody, V domains shown)
VH: EVKLQQSGAELVKPGASVKLSCTASGFSIRDTYMHWVRQRPEQGLEWITGIDPENGNSKYAPRFQDKATIIADTSSNTVHLQLDTLTSEDTAVYYCTRELAYWGQGTTVTVS
VL: DILMTQSPLTLSVIIGQPASFSCKSSHSLLHRDGRTYLNWLLQRPGQSPQRLIYLVSKLDSGVPDRFTGSGSGTDFTLKISRVEAEDLGVYYCWQGTHFPRTFGGGTKLEIKRA
[1]; Astrocytoma
  No. of positive cases/total no. of cases studied: 0/2
[1]; Breast carcinoma
  No. of positive cases/total no. of cases studied: 0/2
[1]; Carcinoid
  No. of positive cases/total no. of cases studied: 0/3
[1]; Colonic adenocarcinoma
  No. of positive cases/total no. of cases studied: 0/2
[1]; Epithelioid sarcoma
  No. of positive cases/total no. of cases studied: 0/1
[1]; Ewing's sarcoma
  No. of positive cases/total no. of cases studied: 0/1
[1]; Gastric carcinoma
  No. of positive cases/total no. of cases studied: 0/2
[1]; Hepatocellular carcinoma
  No. of positive cases/total no. of cases studied: 0/2
[1]; Hodgkin's lymphoma
  No. of positive cases/total no. of cases studied: 5/13
[1]; Leiomyoma
  No. of positive cases/total no. of cases studied: 0/2
[1]; Lung adeno carcinoma
  No. of positive cases/total no. of cases studied: 0/2
[1]; Lymphoma
  No. of positive cases/total no. of cases studied: 0/3
[1]; Malignant fibrous histiocytoma
  No. of positive cases/total no. of cases studied: 0/1
[1]; Melanoma
  No. of positive cases/total no. of cases studied: 2/4
[1]; Mesothelioma
  No. of positive cases/total no. of cases studied: 0/2
[1]; Ovarian carcinoma
  No. of positive cases/total no. of cases studied: 0/2
[1]; Pancreatic carcinoma
  No. of positive cases/total no. of cases studied: 0/2
[1]; Prostatic carcinoma
  No. of positive cases/total no. of cases studied: 1/1
[1]; Renal cell carcinoma
  No. of positive cases/total no. of cases studied: 0/2
[1]; Rhabdosarcoma
  No. of positive cases/total no. of cases studied: 2/2
[1]; Thyroid carcinoma
  No. of positive cases/total no. of cases studied: 0/2
[1]; Undifferentiated carcinoma
  No. of positive cases/total no. of cases studied: 0/4
[2]; Adipose
  No. of positive cases/total no. of cases studied: 0/2
[2]; Bladder
  No. of positive cases/total no. of cases studied: 0/2
[2]; Brain
  No. of positive cases/total no. of cases studied: 0/2
[2]; Breast
  No. of positive cases/total no. of cases studied: 0/2
[2]; Cerebullum
  No. of positive cases/total no. of cases studied: 0/2
[2]; Cervix
  No. of positive cases/total no. of cases studied: 0/2
[2]; Colon
  No. of positive cases/total no. of cases studied: 0/2
[2]; Diaphragm
  No. of positive cases/total no. of cases studied: 2/2
[2]; Duodenum
  No. of positive cases/total no. of cases studied: 0/2
[2]; Esophagus
  No. of positive cases/total no. of cases studied: 0/2
[2]; Gallbladder
  No. of positive cases/total no. of cases studied: 0/2
[2]; Heart
  No. of positive cases/total no. of cases studied: 0/2
[2]; Ileum
  No. of positive cases/total no. of cases studied: 2/2
[2]; Jejenum
  No. of positive cases/total no. of cases studied: 2/2
[2]; Kidney
  No. of positive cases/total no. of cases studied: 1/2
[2]; Liver
  No. of positive cases/total no. of cases studied: 0/2
[2]; Lung
  No. of positive cases/total no. of cases studied: 0/2
[2]; Ovary
  No. of positive cases/total no. of cases studied: 0/2
[2]; Pancreas
  No. of positive cases/total no. of cases studied: 0/2
[2]; Placenta
  No. of positive cases/total no. of cases studied: 1/4
[2]; Rectum
  No. of positive cases/total no. of cases studied: 0/2
[2]; Skeletal muscle
  No. of positive cases/total no. of cases studied: 2/2
[2]; Skin
  No. of positive cases/total no. of cases studied: 0/2
[2]; Spleen
  No. of positive cases/total no. of cases studied: 0/2
[2]; Stomach
  No. of positive cases/total no. of cases studied: 0/2
[2]; Testis
  No. of positive cases/total no. of cases studied: 0/2
[2]; Thymus
  No. of positive cases/total no. of cases studied: 0/2
[2]; Thyroid
  No. of positive cases/total no. of cases studied: 0/2
[2]; Tonsil
  No. of positive cases/total no. of cases studied: 0/2
[2]; Uterus
  No. of positive cases/total no. of cases studied: 0/2

B2: PSf42.3: anti-PSMA monoclonal antibody; light chain variable SEQ ID NO:49, heavy chain variable SEQ ID NO:50 (antibody, V domains shown)
VH: EVQLQQSGAELAKPGASVKLSCTGSGFNIKDTYMHWVKQRPEQGLEWIGGIDPETGNTKFDPRFQDKATITSDTSSNTVLLQLSSLTSEDTAVYYCANLGRPFAHWGQGTTVTVS
VL: HSADPVSISCKSSQSLLHRDGKTYLNWVFQRPGQSPQRLIYLVSLVDSGVPDRFTGSGSGTDFTLKINRVEAEDLGVYYCWQGTHFPRTFGGGTKLEIKRA
[1]; Astrocytoma
  No. of positive cases/total no. of cases studied: 0/2
[1]; Breast carcinoma
  No. of positive cases/total no. of cases studied: 0/2
[1]; Carcinoid
  No. of positive cases/total no. of cases studied: 0/3
[1]; Colonic adenocarcinoma
  No. of positive cases/total no. of cases studied: 0/2
[1]; Epithelioid sarcoma
  No. of positive cases/total no. of cases studied: 0/1
[1]; Ewing's sarcoma
  No. of positive cases/total no. of cases studied: 0/1
[1]; Gastric carcinoma
  No. of positive cases/total no. of cases studied: 0/2
[1]; Hepatocellular carcinoma
  No. of positive cases/total no. of cases studied: 0/2
[1]; Hodgkin's lymphoma
  No. of positive cases/total no. of cases studied: 2/13
[1]; Leiomyoma
  No. of positive cases/total no. of cases studied: 0/2
[1]; Lung adeno carcinoma
  No. of positive cases/total no. of cases studied: 0/2
[1]; Lymphoma
  No. of positive cases/total no. of cases studied: 0/3
[1]; Malignant fibrous histiocytoma
  No. of positive cases/total no. of cases studied: 0/1
[1]; Melanoma
  No. of positive cases/total no. of cases studied: 2/4
[1]; Mesothelioma
  No. of positive cases/total no. of cases studied: 0/2
[1]; Ovarian carcinoma
  No. of positive cases/total no. of cases studied: 0/2
[1]; Pancreatic carcinoma
  No. of positive cases/total no. of cases studied: 0/2
[1]; Prostatic carcinoma
  No. of positive cases/total no. of cases studied: 1/1
[1]; Renal cell carcinoma
  No. of positive cases/total no. of cases studied: 0/2
[1]; Rhabdosarcoma
  No. of positive cases/total no. of cases studied: 2/2
[1]; Thyroid carcinoma
  No. of positive cases/total no. of cases studied: 0/2
[1]; Undifferentiated carcinoma
  No. of positive cases/total no. of cases studied: 0/4
[2]; Adipose
  No. of positive cases/total no. of cases studied: 0/2
[2]; Bladder
  No. of positive cases/total no. of cases studied: 0/2
[2]; Brain
  No. of positive cases/total no. of cases studied: 0/2
[2]; Breast
  No. of positive cases/total no. of cases studied: 0/2
[2]; Cerebullum
  No. of positive cases/total no. of cases studied: 0/2
[2]; Cervix
  No. of positive cases/total no. of cases studied: 0/2
[2]; Colon
  No. of positive cases/total no. of cases studied: 0/2
[2]; Diaphragm
  No. of positive cases/total no. of cases studied: 2/2
[2]; Duodenum
  No. of positive cases/total no. of cases studied: 2/2
[2]; Esophagus
  No. of positive cases/total no. of cases studied: 2/2
[2]; Gallbladder
  No. of positive cases/total no. of cases studied: 0/2
[2]; Heart
  No. of positive cases/total no. of cases studied: 0/2
[2]; Ileum
  No. of positive cases/total no. of cases studied: 2/2
[2]; Jejenum
  No. of positive cases/total no. of cases studied: 2/2
[2]; Kidney
  No. of positive cases/total no. of cases studied: 2/2
[2]; Liver
  No. of positive cases/total no. of cases studied: 0/2
[2]; Lung
  No. of positive cases/total no. of cases studied: 0/2
[2]; Ovary
  No. of positive cases/total no. of cases studied: 0/2
[2]; Pancreas
  No. of positive cases/total no. of cases studied: 0/2
[2]; Placenta
  No. of positive cases/total no. of cases studied: 1/4
[2]; Rectum
  No. of positive cases/total no. of cases studied: 0/2
[2]; Skeletal muscle
  No. of positive cases/total no. of cases studied: 2/2
[2]; Skin
  No. of positive cases/total no. of cases studied: 0/2
[2]; Spleen
  No. of positive cases/total no. of cases studied: 0/2
[2]; Stomach
  No. of positive cases/total no. of cases studied: 0/2
[2]; Testis
  No. of positive cases/total no. of cases studied: 0/2
[2]; Thymus
  No. of positive cases/total no. of cases studied: 0/2
[2]; Thyroid
  No. of positive cases/total no. of cases studied: 0/2
[2]; Tonsil
  No. of positive cases/total no. of cases studied: 0/2
[2]; Uterus
  No. of positive cases/total no. of cases studied: 0/2
